{"source": "patent US6972178B1", "about": "“Drug screening using a proline-rich nuclear receptor co-regulatory protein/nuclear receptor co-expression system” (City of Hope, priority 1999, dated 2005)", "key": {"SF1 [1]": {"biological_target": "T1, SF1 (Bos taurus, UniProt Q04752)", "T1 sequence (Q04752 whole entry)": "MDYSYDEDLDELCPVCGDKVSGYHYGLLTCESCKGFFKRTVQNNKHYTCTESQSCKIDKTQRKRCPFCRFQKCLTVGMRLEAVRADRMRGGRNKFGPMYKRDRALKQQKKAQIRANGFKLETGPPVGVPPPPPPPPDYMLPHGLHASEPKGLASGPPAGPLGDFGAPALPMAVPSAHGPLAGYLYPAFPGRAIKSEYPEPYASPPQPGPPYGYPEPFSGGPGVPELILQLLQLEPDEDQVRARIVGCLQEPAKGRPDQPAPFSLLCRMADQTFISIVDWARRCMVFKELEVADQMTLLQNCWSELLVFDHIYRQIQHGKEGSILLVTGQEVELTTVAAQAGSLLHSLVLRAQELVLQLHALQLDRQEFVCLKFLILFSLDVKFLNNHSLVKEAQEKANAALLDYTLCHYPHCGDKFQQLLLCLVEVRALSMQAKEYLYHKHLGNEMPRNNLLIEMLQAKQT", "assay": "Nuclear receptor transactivation, CAT reporter in SK-BR-3 cells", "type": "cell-based, bovine", "parameters": "The coding region for the wild type bovine SF1 was first subcloned into a yeast expression vector, pGBT9; expressed in transfected cells; host or cells: yeast (Y187, or Y187 x CG1945 diploids)", "description": "(§1) To examine the possible biological significance of this interaction, the entire PNRC coding region was inserted into a mammalian expression vector, pSG5, and this expression plasmid was used to transiently transfect SK-BR-3 cells along with a reporter plasmid, pUMS 1.3CAT-(SF1site)3, which contains three copies of extended steroid hormone half binding site from the human aromatase gene (5′-CCAAGGTCAGAA-3′ (SEQ ID NO:3)), promoter 1.3 of the human aromatase gene, and the CAT reporter gene, along with a second expression plasmid for either SF1 (pSG5-SF1) or ERRα1 (pSG5-ERRα1) (Yang et al., 1998).\n(§2) Plasmid for overexpression of PNRC in mammalian cells was made by inserting PCR-amplified fragment with BclI at both ends into the BamHI site in pSG5 vector (Stratagene). To construct mammalian expression plasmids for bovine SF1 and human ERRα1, named pSG5-bSF1 and pSGS-hERRα1, the coding regions for SF1 and ERRα1 were amplified by PCR with an EcoRI site at both ends, and inserted into an EcoRI site of the pSG5 vector. The CAT reporter plasmid, pUMS1.3CAT-(SF1site)3, was prepared by inserting 3 copies of SF1 binding site from human aromatase gene, 5′-CCAAGGTCAGAA-3′ (SEQ ID NO:3), into pUMS-64/+5CAT (Zhou and Chen, 1999) through a HindIII site. […]"}, "SF1 [2]": {"biological_target": "T1, SF1", "assay": "Mammalian two-hybrid assay in SK-BR-3 cells (CAT reporter)", "type": "cell-based, bovine", "parameters": "expressed in transfected cells; host or cells: SK-BR-3", "conditions": "pM-SF1 + pVP16-PNRC + pG5CAT", "experimental": "The Mammalian MatchMaker two-hybrid assay system (Clontech) was used to confirm the interaction between PNRC and SF1 that was identified in the yeast assays. Because the assays are performed in mammalian cells, proteins are more likely to be in their native conformations, and the results are therefore more likely to represent biologically significant interactions. SK-BR-3 breast cancer cells were cotransfected with three expression plasmids, including pM-SF1 for Gal4 DNA-DB/SF1 fusion protein, pVP16-PNRC for VP16AD-PNRC fusion protein, and a third vector, pG5CAT, to provide the Gal4 DNA-binding site, a promoter, and the CAT reporter gene.\nA set of plasmids, named pM-SF1, pVP16-PNRC, pVP16-PNRC270-327, and pVP16-PNRC278-300, for mammalian two-hybrid assays were prepared as follows: SF1 cDNA fragment was excised from pGBT9-SF1 and inserted in frame into Gal4 DNA-binding domain vector pM (Clontech) through an EcoRI site. PCR was used to generate PNRC full length coding region as well as the above mentioned deleted fragments with BclI at both ends. The PCR products were digested with BclI and inserted in proper reading frame into a pVP16 activation domain vector (Clontech) at a BamHI site. Mammalian two-hybrid assays in SK-BR-3 cells were performed according to the procedures described in the Clontech protocol (PT3002-1)."}, "ERRα1": {"biological_target": "T2, ERRα1 (Homo sapiens, UniProt P11474)", "T2 construct": "inserting the PCR-amplified ERRA-1 coding region into pGBT9 through an EcoRI site; expressed in transfected cells; host or cells: yeast Y187 x CG1945 diploids", "T2 sequence (P11474 1-423)": "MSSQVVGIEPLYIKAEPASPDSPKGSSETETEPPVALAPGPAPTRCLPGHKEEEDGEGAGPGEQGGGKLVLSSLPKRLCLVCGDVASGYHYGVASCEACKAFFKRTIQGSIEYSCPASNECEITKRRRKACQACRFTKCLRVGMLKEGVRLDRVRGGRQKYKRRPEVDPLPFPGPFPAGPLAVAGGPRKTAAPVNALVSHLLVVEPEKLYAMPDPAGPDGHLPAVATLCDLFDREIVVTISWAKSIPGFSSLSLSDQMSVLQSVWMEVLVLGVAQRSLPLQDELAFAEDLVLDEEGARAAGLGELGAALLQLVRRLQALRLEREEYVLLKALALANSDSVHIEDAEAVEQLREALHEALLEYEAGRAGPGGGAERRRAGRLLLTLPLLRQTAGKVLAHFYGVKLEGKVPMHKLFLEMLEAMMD", "assay": "Nuclear receptor transactivation, CAT reporter in SK-BR-3 cells", "type": "cell-based", "description": "as §1, §2"}}}
{"substance": "PNRC: proline-rich nuclear receptor co-regulatory protein, 327 aa, SEQ ID NO:8, nuclear receptor coactivator", "values": [{"measurement": "effect on SF1-stimulated transcription by promoter 1.3 of the human aromatase gene", "setting": "SF1 [1]", "value": "enhanced both SF1-stimulated and ERRα1-stimulated transcription"}, {"measurement": "CAT activity relative to cells transfected with only CAT reporter plasmid", "setting": "SF1 [2]", "value": "5-6 fold"}, {"measurement": "effect on ERRα1-stimulated transcription by promoter 1.3 of the human aromatase gene", "setting": "ERRα1", "value": "enhanced both SF1-stimulated and ERRα1-stimulated transcription"}]}
